Experimental findings from PMC10792529 (Proteins, 2023) are described below.

The chains are these.
B3: human SUN1 SUN domain (domain or fragment)
chain: GITEAQARAIVNSALKLYSQDKTGMVDFALESGGGSILSTRCSETYETKTALMSLFGIPLWYFSQSPRVVIQPDIYPGNCWAFKGSQGYLVVRLSMMIHPAAFTLEHIPKTLSPTGNISSAPKDFAVYGLENEYQEEGQLLGQFTYDQDGESLQMFQALKRPDDTAFQIVELRIFSNWGHPEYTCLYRFRVHGEPVK

Where “and” joins values, the source holds several entries; their conditions need not be identical. Identical values can stand only once.

Series [1] deals with HucM, scaffold subunit of the [NiFe]-hydrogenase Huc (Mycobacterium smegmatis). As to the kind of experiment: cryo-EM structure; 833 kDa Huc complex: 8 HucL, 8 HucS, 4 HucM.
Series [2] has as its target HucSL heterodimer (Mycobacterium smegmatis). The series is described as above.
The target of series [3] is cytosolic domain of the major export gate protein YscV (Yersinia enterocolitica). Kind of series: crystal structure; 9:9:9 YscV:YscX:YscY complex, 4.1 Å, 18 copies of the 1:1:1 complex in the asymmetric unit.
Series [4] has as its target nudivirus polyhedrin (occlusion body protein of Tipula oleracea nudivirus) (Tipula oleracea nudivirus). As to the kind of experiment: crystal structure.
In series [5] the target is Mycobacterium smegmatis MceG (Mycobacterium smegmatis). Kind of series: cryo-EM structure.
For series [6], the target named is tyrosine O-methyltransferase MfnG from Streptomyces drozdowiczii (Streptomyces drozdowiczii). Kind of series: crystal structure; MfnG with SAH and soaked L-Tyr; five crystal forms with one to four dimers per asymmetric unit.
Series [7] concerns the target phosphodiesterase domain of 2',3'-cyclic nucleotide 3'-phosphodiesterase (CNPase) (Mus musculus (assumed; species not …, UniProt P16330). As to the kind of experiment: crystal structure; nanobodies co-crystallized with the phosphodiesterase domain of CNPase. The conditions noted are these: both partners purified.
For the series “human SUN1 SUN domain”, the target named is B3. Kind of series: crystal structure; SUN1-KASH6 complex, nine SUN domains and six KASH peptides. As to conditions: both partners purified.
Series [8] deals with the molecule itself. The series is described as above.
The target of series [9] is T1, E. coli outer-membrane transporter FhuA (E. coli, UniProt P06971 34-747).
T1 sequence (looked up): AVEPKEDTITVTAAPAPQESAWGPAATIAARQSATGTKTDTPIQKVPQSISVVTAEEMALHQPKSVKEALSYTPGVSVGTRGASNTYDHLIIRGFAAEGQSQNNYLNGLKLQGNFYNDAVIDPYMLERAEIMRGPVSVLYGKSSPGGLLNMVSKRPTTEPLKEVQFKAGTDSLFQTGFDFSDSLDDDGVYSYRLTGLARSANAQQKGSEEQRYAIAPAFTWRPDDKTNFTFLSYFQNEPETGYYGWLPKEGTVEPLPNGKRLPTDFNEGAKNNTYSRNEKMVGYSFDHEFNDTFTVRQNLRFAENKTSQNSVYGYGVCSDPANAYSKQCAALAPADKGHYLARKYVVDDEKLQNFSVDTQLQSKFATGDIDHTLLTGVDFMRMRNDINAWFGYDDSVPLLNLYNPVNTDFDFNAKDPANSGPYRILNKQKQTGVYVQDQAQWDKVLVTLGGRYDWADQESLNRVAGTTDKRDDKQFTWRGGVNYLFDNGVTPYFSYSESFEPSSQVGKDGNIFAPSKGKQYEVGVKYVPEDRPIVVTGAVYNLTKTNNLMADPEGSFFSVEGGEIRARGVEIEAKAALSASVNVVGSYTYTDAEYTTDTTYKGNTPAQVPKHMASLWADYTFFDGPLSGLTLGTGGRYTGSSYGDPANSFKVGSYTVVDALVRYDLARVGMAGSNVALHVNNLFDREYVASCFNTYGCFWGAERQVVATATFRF
Kind of series: cryo-EM structure. The conditions noted are these: both partners purified.

As usually defined, the stoichiometry N is the number of molecules, sites or subunits per partner or assembly.

phosphodiesterase domain of 2',3'-cyclic nucleotide 3'-phosphodiesterase (CNPase) (Mus musculus, sequence (P16330 whole entry, looked up, the tested form may be a part): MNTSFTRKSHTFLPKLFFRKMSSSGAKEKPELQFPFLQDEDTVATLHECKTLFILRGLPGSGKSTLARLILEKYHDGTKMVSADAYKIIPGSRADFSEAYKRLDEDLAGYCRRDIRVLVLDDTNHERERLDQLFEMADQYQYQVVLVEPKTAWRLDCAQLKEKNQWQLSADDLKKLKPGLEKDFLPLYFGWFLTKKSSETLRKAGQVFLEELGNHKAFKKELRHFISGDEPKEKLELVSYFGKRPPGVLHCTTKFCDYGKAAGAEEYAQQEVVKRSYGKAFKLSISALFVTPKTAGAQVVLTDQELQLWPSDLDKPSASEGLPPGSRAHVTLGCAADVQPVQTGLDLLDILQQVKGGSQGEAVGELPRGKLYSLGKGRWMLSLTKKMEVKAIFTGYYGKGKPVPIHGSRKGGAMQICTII

Turning to “HucM, scaffold subunit of the [NiFe]-hydrogenase Huc (natural protein)”, the stoichiometry N in series [1] amounted to 4.
In [2], HucSL heterodimer (complex) came in with a stoichiometry N of 2.
In turn, YscX:YscY heterodimer (complex) displayed a stoichiometry N (YscX:YscY complexes per YscV nonamer) in series [3] of 9.
Molecule “nudivirus polyhedrin (occlusion body protein of Tipula oleracea nudivirus) (natural protein)” showed a stoichiometry N in series [4] of 2.
In series [3], “cytosolic domain of the major export gate protein YscV (domain or fragment)” came in with a stoichiometry N of 9.
Mycobacterium smegmatis MceG (enzyme): in [5], the stoichiometry N was found to be 2.
As for “tyrosine O-methyltransferase MfnG from Streptomyces drozdowiczii (enzyme)”, the stoichiometry N in series [6] worked out at 2.

B1: nanobody 8C (VHH)
VHH: EVQLEESGGGLVQAGGSLTLSCAASGFTFDDYAMGWYRQAPGKERVGVSCISRTDGYTYYLDSVKGRFTISTDHAKHTVYLQMNNLKPDDTGLYYCAADADPEYGSRCPDPYYGMDYWGKGILVTVSS
Consider B1, for which the binding result in [7] is “binds”.

B2: KASH6 peptide, the KASH domain of JAW1/LRMP (peptide)
peptide: TGQLFQKSVDAAPTQQEDSWTSLEHILWPFTRLRHNGPPPV
B2: the “stoichiometry N” value with human SUN1 SUN domain is 2 KASH6 peptides per SUN1 trimer.
For the molecule B3, the “stoichiometry N” value in series [8] is 3 and 9.

B4: Bacteriophage T5 Receptor Binding Protein RBPpb5 (natural protein)
chain: MSFFAGKLNNKSILSLRRGSGGDTNQHINPDSQTIFHSDMSHVIITETHSTGLRLDQGAGDYYWSEMPSRVTQLHNNDPNRVVLTEIEFSDGSRHMLSGMSMGVGAKAYGIINPQIMSQGGLKTQITASADLSLDVGYFNTGTSGTIPQKLRDGTGCQHMFGAFSGRRGFASSAMYLGGAALYKSAWSGSGYVVADAGTLTIPSDYVRHPGARNFGFNAIYVRGRSCNRVLYGMEGPNYTTGGAVQGASSSGALNFTYNPSNPESPKYSVGFARADPTNYAYWESMGDPNDSANGPIGIYSEHLGIYPSKITWYVTNLVYNGSGYNIDGGLFNGNDIKLSPREFIIKGVNVNNTSWKFINFIEKNFNVGNRADFRDVGCNLSKDSPSTGISGIATFGLPTTESNNAPSIKGGNVGGLHANVVSIYNFLPSASWYVSSNPPKIGNNYGDVWSENLLPLRLLGGSGSTILSGNIVFQGNGSVHVGTVGLDLNSSRNGAIVCTMEFIDDTWLSAGGIGCFNPTEMLSQGAEYGDSRFRIGGNTINKKLHQILSLPAGEYVPFFTIKGTVVNACKLQAAAYNPTPYWVSGLPGSVGQTGYYTLTYYMRNDGNNNISIWLDSSMSNIIGMKACLPNIKLIIQRLT
With B4, the binding result in series [9] is recorded as “binds”.
